Measured values reported in US20250262210A1 (TRUSTEES OF COLUMBIA UNIVERSITY IN THE CITY OF NEW YORK, published 2025).

How the values were obtained:
[1] = target: T1, FHOD1 (human, UniProt Q9Y613 2-1164); test: IP/MS, LZTR1 wild type-FLAG, U87
T1 sequence (looked up): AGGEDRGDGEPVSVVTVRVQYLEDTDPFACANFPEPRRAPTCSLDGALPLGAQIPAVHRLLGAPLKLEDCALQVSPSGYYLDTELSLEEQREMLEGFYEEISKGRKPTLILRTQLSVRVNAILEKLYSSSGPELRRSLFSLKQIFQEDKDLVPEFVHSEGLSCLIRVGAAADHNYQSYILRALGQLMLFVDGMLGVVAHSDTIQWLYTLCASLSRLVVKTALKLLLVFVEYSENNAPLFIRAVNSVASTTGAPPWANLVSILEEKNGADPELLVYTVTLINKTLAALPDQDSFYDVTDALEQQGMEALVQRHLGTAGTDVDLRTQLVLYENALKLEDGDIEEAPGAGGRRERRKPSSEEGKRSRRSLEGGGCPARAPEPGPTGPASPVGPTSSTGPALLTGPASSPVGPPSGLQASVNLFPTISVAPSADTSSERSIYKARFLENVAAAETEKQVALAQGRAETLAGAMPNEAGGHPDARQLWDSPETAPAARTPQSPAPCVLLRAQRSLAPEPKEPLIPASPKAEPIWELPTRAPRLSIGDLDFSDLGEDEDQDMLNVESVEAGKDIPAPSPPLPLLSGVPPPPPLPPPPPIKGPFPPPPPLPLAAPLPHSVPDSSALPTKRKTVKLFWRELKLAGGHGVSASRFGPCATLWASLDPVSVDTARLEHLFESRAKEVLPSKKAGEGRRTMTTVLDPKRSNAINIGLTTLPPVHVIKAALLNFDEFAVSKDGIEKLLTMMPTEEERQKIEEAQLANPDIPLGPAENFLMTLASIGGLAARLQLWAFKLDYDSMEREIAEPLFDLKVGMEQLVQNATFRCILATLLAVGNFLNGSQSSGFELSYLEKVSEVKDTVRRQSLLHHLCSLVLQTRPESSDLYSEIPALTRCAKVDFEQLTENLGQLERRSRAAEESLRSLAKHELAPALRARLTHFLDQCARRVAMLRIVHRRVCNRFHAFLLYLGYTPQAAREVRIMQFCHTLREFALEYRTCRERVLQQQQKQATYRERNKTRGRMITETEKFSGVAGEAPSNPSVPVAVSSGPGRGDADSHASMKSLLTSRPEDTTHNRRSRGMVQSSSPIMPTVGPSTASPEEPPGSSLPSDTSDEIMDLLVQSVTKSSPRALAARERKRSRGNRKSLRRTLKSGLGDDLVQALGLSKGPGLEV
Procedure, shortened: (§1)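 Read-out: spectral counts from LC-MS/MS (Orbitrap Fusion) after MaxQuant identification. Variable modifications were Met oxidation, protein N-terminal acetylation and N/Q deamidation.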

[2] = target: SPG11 (human, UniProt Q96JI7 1-2443, limits assumed); test: IP/MS, LZTR1 wild type-FLAG, U87
Procedure, shortened: as §1

Sequence of SPG11 (Q96JI7 whole entry): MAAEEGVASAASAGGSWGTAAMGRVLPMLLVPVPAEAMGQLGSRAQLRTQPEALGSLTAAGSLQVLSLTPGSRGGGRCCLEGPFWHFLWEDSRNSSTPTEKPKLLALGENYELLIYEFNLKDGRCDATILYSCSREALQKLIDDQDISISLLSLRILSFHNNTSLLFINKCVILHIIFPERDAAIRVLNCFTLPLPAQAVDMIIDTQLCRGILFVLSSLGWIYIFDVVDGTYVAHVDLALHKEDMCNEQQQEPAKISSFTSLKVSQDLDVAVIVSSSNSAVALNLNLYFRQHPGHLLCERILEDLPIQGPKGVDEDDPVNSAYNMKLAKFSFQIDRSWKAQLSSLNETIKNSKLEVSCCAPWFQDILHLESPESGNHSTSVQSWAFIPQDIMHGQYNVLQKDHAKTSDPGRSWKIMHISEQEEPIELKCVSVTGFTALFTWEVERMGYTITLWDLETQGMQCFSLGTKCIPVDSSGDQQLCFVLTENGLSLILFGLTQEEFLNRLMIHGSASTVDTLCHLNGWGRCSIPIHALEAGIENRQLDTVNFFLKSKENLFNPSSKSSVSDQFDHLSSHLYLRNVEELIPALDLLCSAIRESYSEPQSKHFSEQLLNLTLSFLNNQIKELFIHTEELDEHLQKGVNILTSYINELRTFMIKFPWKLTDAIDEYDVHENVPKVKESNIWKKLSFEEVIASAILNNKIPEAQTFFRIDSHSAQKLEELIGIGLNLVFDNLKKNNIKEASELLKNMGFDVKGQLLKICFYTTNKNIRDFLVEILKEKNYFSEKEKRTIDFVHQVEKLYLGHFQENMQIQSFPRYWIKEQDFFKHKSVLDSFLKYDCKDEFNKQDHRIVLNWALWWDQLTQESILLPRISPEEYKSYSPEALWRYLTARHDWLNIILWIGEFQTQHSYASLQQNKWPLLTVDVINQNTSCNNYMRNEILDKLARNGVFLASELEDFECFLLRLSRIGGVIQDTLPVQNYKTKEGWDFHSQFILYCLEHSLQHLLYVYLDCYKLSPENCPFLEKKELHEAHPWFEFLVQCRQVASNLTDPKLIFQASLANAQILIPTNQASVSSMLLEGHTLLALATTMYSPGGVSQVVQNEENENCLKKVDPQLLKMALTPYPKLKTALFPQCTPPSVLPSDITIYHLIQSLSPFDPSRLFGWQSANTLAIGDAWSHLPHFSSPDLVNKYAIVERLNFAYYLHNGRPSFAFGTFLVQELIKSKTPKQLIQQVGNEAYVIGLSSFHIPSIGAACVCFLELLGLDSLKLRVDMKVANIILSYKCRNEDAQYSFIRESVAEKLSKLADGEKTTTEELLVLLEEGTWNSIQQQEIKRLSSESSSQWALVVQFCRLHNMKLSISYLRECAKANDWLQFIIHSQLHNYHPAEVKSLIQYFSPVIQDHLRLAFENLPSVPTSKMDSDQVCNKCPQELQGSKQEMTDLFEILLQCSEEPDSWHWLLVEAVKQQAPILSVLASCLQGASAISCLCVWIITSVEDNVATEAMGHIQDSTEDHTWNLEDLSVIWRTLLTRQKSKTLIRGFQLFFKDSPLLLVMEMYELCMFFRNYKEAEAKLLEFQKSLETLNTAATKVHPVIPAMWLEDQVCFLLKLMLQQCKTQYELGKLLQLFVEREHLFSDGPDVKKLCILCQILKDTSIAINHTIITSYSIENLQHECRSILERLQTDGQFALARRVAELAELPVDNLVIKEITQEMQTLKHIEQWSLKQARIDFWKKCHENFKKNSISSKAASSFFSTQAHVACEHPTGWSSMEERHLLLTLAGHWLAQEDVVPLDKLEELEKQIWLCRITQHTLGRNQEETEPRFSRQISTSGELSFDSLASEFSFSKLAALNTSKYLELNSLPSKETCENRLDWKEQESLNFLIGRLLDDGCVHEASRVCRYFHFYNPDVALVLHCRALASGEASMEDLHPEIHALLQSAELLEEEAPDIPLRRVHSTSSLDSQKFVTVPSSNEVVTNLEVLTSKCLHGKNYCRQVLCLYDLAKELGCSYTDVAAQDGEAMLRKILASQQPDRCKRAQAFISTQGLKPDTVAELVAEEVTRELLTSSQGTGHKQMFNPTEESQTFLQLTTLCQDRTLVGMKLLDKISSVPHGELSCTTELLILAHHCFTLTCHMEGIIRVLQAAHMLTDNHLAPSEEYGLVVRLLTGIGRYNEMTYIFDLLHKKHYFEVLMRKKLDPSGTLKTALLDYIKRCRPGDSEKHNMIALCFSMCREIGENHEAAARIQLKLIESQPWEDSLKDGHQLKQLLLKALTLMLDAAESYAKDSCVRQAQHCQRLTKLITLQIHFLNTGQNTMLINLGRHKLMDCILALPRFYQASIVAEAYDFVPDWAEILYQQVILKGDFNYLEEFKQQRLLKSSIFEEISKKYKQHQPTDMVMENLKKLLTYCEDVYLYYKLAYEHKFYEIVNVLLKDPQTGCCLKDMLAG

B1: LZTR1-FLAG (other, human, UniProt Q8N653 1-840, looked up)
chain: MAGPGSTGGQIGAAALAGGARSKVAPSVDFDHSCSDSVEYLTLNFGPFETVHRWRRLPPCDEFVGARRSKHTVVAYKDAIYVFGGDNGKTMLNDLLRFDVKDCSWCRAFTTGTPPAPRYHHSAVVYGSSMFVFGGYTGDIYSNSNLKNKNDLFEYKFATGQWTEWKIEGRLPVARSAHGATVYSDKLWIFAGYDGNARLNDMWTIGLQDRELTCWEEVAQSGEIPPSCCNFPVAVCRDKMFVFSGQSGAKITNNLFQFEFKDKTWTRIPTEHLLRGSPPPPQRRYGHTMVAFDRHLYVFGGAADNTLPNELHCYDVDFQTWEVVQPSSDSEVGGAEVPERACASEEVPTLTYEERVGFKKSRDVFGLDFGTTSAKQPTQPASELPSGRLFHAAAVISDAMYIFGGTVDNNIRSGEMYRFQFSCYPKCTLHEDYGRLWESRQFCDVEFVLGEKEECVQGHVAIVTARSRWLRRKITQARERLAQKLEQEAAPVPREAPGVAAGGARPPLLHVAIREAEARPFEVLMQFLYTDKIKYPRKGHVEDVLLIMDVYKLALSFQLCRLEQLCRQYIEASVDLQNVLVVCESAARLQLSQLKEHCLNFVVKESHFNQVIMMKEFERLSSPLIVEIVRRKQQPPPRTPLDQPVDIGTSLIQDMKAYLEGAGAEFCDITLLLDGHPRPAHKAILAARSSYFEAMFRSFMPEDGQVNISIGEMVPSRQAFESMLRYIYYGEVNMPPEDSLYLFAAPYYYGFYNNRLQAYCKQNLEMNVTVQNVLQILEAADKTQALDMKRHCLHIIVHQFTKVSKLPTLRSLSQQLLLDIIDSLASHISDKQCAELGADI
notes: Expressed in HEK 293T, HeLa or U87 cells; used as cell lysate; also called LZTR1 wild type-FLAG; LZTR1 WT; not shown: FLAG tag at the C-terminus
B1: binds [1]; binds [2].
